According to patent publication US20250313631A1 (HUMMINGBIRD BIOSCIENCE PTE, published 2025):
Where “and” joins values, the source holds several entries; their conditions need not be identical. Identical values can stand only once. Values belong to the binder of their own block, whether it stands above or below them.

How the values were obtained:
[1] = target: T1, mouse FcRn (His-tagged, Sino Biological CT009-H08H) (mouse, UniProt Q61559 22-297); assay: BLI summary table, mFcRn, pH 5.8
T1 construct: also called mFcRn
T1 sequence (looked up): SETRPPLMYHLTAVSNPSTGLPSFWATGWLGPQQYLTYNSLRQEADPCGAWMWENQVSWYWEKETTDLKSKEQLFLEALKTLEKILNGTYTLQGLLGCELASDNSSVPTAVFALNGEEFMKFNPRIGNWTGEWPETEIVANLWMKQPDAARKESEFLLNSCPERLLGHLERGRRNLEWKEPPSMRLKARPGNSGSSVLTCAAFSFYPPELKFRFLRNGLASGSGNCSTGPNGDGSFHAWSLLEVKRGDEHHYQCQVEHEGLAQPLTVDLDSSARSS

[2] = target: T2, mouse FcγRIIb (His-tagged, Sino Biological 50030-M08H) (mouse, UniProt P08101 30-217); assay: BLI (Octet QK384): His-tagged receptor on anti-Penta-HIS biosensor, antibody as analyte, PBS pH 7.2, global 1:1 fit; experiment 2
T2 construct: also called mFcγRIIb
T2 sequence (looked up): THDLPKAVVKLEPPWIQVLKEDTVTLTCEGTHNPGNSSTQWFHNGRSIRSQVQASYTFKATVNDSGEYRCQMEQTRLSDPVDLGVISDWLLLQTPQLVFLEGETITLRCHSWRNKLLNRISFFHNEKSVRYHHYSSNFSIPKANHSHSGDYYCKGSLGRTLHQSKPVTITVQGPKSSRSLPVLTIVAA

[3] = target: T3, mouse FcγRIV (His-tagged, Sino Biological 50036-M08H) (mouse, UniProt A0A0B4J1G0 21-203); assay: BLI summary table, mFcgRIV, pH 7.2
T3 construct: also called mFcγRIV; not shown: the histidine tag (and any linker) of the Sino Biological construct 50036-M08H
T3 sequence: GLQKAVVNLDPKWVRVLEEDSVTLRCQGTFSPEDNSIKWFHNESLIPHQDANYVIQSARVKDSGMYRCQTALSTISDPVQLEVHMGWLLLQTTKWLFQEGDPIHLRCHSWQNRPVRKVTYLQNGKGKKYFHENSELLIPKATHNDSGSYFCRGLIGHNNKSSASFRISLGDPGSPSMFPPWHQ

[4] = target: T1, mouse FcRn (His-tagged, Sino Biological …); assay: BLI summary table, mFcRn, pH 5.8; remark: listed apart in the source
[5] = target: T3, mouse FcγRIV (His-tagged, Sino …); assay: BLI (Octet QK384): His-tagged receptor on anti-Penta-HIS biosensor, antibody as analyte, PBS pH 7.2, global 1:1 fit; experiment 2
[6] = target: T3, mouse FcγRIV (His-tagged, Sino …); assay: BLI summary table, mFcgRIV, pH 7.2; remark: listed apart in the source
[7] = target: T2, mouse FcγRIIb (His-tagged, Sino …); assay: BLI summary table, mFcgRIIb, pH 7.2
[8] = target: T2, mouse FcγRIIb (His-tagged, Sino …); assay: BLI summary table, mFcgRIIb, pH 7.2; remark: listed apart in the source
[9] = target: T4, mouse FcγRIII (His-tagged, Sino Biological 50326-M08H) (mouse, UniProt P08508 31-215); assay: BLI summary table, mFcgRIII, pH 7.2
T4 construct: also called mFcγRIII
T4 sequence (looked up): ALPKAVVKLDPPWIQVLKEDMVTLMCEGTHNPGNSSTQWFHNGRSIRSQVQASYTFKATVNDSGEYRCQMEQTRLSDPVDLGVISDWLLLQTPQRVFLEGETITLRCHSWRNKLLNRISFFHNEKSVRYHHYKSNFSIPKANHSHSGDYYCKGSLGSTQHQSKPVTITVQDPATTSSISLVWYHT

[10] = target: T1, mouse FcRn (His-tagged, Sino Biological …); assay: BLI summary table, mFcRn, pH 5.8; remark: listed apart in the source
[11] = target: T3, mouse FcγRIV (His-tagged, Sino …); assay: BLI summary table, mFcgRIV, pH 7.2; remark: listed apart in the source
[12] = target: T4, mouse FcγRIII (His-tagged, Sino …); assay: BLI summary table, mFcgRIII, pH 7.2; remark: listed apart in the source
[13] = target: T1, mouse FcRn (His-tagged, Sino Biological …); assay: BLI (Octet QK384): His-tagged mFcRn on anti-Penta-HIS biosensor, antibody as analyte, PBS pH 5.8, global 1:1 fit; experiment 2
[14] = target: T2, mouse FcγRIIb (His-tagged, Sino …); assay: BLI summary table, mFcgRIIb, pH 7.2; remark: listed apart in the source
[15] = target: T4, mouse FcγRIII (His-tagged, Sino …); assay: BLI summary table, mFcgRIII, pH 7.2; remark: listed apart in the source
[16] = target: T4, mouse FcγRIII (His-tagged, Sino …); assay: BLI (Octet QK384): His-tagged receptor on anti-Penta-HIS biosensor, antibody as analyte, PBS pH 7.2, global 1:1 fit; experiment 2
[17] = target: T4, mouse FcγRIII (His-tagged, Sino …); assay: BLI (Octet QK384): His-tagged receptor on anti-Penta-HIS biosensor, antibody as analyte, PBS pH 7.2, global 1:1 fit
[18] = target: T1, mouse FcRn (His-tagged, Sino Biological …); assay: BLI (Octet QK384): His-tagged mFcRn on anti-Penta-HIS biosensor, antibody as analyte, PBS pH 5.8, global 1:1 fit
[19] = target: T2, mouse FcγRIIb (His-tagged, Sino …); assay: BLI (Octet QK384): His-tagged receptor on anti-Penta-HIS biosensor, antibody as analyte, PBS pH 7.2, global 1:1 fit
[20] = target: T3, mouse FcγRIV (His-tagged, Sino …); assay: BLI (Octet QK384): His-tagged receptor on anti-Penta-HIS biosensor, antibody as analyte, PBS pH 7.2

kon [1]: 190000 M⁻¹ s⁻¹ and 220000 M⁻¹ s⁻¹
Kd [2]: 2190 nM
koff [2]: 0.12 s⁻¹
kon [2]: 55000 M⁻¹ s⁻¹
kon [3]: 96000 M⁻¹ s⁻¹ and 92000 M⁻¹ s⁻¹
Kd [4]: 31.5 nM and 49.5 nM
Kd [5]: 372 nM
koff [5]: 0.034 s⁻¹
kon [5]: 92000 M⁻¹ s⁻¹
koff [6]: 0.025 s⁻¹ and 0.034 s⁻¹
Kd [7]: 876 nM and 2190 nM
koff [8]: 0.045 s⁻¹ and 0.12 s⁻¹
kon [9]: 55000 M⁻¹ s⁻¹ and 67000 M⁻¹ s⁻¹
koff [10]: 0.0059 s⁻¹ and 0.011 s⁻¹
Kd [11]: 258 nM and 372 nM
koff [12]: 0.044 s⁻¹ and 0.066 s⁻¹
Kd [13]: 49.6 nM
koff [13]: 0.011 s⁻¹
kon [13]: 220000 M⁻¹ s⁻¹
kon [14]: 51000 M⁻¹ s⁻¹ and 55000 M⁻¹ s⁻¹
Kd [15]: 794 nM and 977 nM
Kd [16]: 977 nM
koff [16]: 0.066 s⁻¹
kon [16]: 67000 M⁻¹ s⁻¹
B1: 4M2-C12 mIgG2a (antibody)
heavy: EVKLVESGPGLVKPSQSLSLTCTVTGYSITSDYAWNWIRQFPGNKLEWMGYITYSGNISYNPSLRSRISITRDTSKNQFFLQLNSVTPEDTATYSCARSLYYPWYFDVWGAGTTVTVSSAKTTAPSVYPLAPVCGDTTGSSVTLGCLVKGYFPEPVTLTWNSGSLSSGVHTFPAVLQSDLYTLSSSVTVTSSTWPSQSITCNVAHPASSTKVDKKIEPRGPTIKPCPPCKCPAPNLLGGPSVFIFPPKIKDVLMISLSPIVTCVVVDVSEDDPDVQISWFVNNVEVHTAQTQTHREDYNSTLRVVSALPIQHQDWMSGKEFKCKVNNKDLPAPIERTISKPKGSVRAPQVYVLPPPEEEMTKKQVTLTCMVTDFMPEDIYVEWTNNGKTELNYKNTEPVLDSDGSYFMYSKLRVEKKNWVERNSYSCSVVHEGLHNHHTTKSFSRTPGK
light: DIVITQTPAILSTSPGEKVTMTCRASSSVGYIHWYQQKPGSSPKPWIYATSNLASGVPARFSGSGSGTSNSLTITRVEAEDAATYYCQQWSSYPPITFGGGTKLEVKRADAAPTVSIFPPSSEQLTSGGASVVCFLNNFYPKDINVKWKIDGSERQNGVLNSWTDQDSKDSTYSMSSTLTLTKDEYERHNSYTCEATHKTSTSPIVKSFNRNEC
notes: mouse IgG2a format, made in CHO cells; also called 4M2-C12 IgG2a

Kd [17]: 455 nM
koff [17]: 0.125 s⁻¹
kon [17]: 270000 M⁻¹ s⁻¹
kon [1]: 170000 M⁻¹ s⁻¹
Kd [4]: 93.9 nM
Kd [7]: 1300 nM
koff [8]: 0.117 s⁻¹
kon [9]: 270000 M⁻¹ s⁻¹
Kd [18]: 93.9 nM
koff [18]: 0.016 s⁻¹
kon [18]: 170000 M⁻¹ s⁻¹
koff [10]: 0.016 s⁻¹
Kd [19]: 1300 nM
koff [19]: 0.117 s⁻¹
kon [19]: 90000 M⁻¹ s⁻¹
koff [12]: 0.125 s⁻¹
kon [14]: 90000 M⁻¹ s⁻¹
Kd [15]: 455 nM
binding result [20]: no binding
B2: 4M2-C12 mIgG1 (antibody)
heavy chain: EVKLVESGPGLVKPSQSLSLTCTVTGYSITSDYAWNWIRQFPGNKLEWMGYITYSGNISYNPSLRSRISITRDTSKNQFFLQLNSVTPEDTATYSCARSLYYPWYFDVWGAGTTVTVSSAKTTPPSVYPLAPGSAAQTNSMVTLGCLVKGYFPEPVTVTWNSGSLSSGVHTFPAVLQSDLYTLSSSVTVPSSTWPSETVTCNVAHPASSTKVDKKIVPRDCGCKPCICTVPEVSSVFIFPPKPKDVLTITLTPKVTCVVVDISKDDPEVQFSWFVDDVEVHTAQTQPREEQFNSTFRSVSELPIMHQDWLNGKEFKCRVNSAAFPAPIEKTISKTKGRPKAPQVYTIPPPKEQMAKDKVSLTCMITDFFPEDITVEWQWNGQPAENYKNTQPIMNTNGSYFVYSKLNVQKSNWEAGNTFTCSVLHEGLHNHHTEKSLSHSPGK
light chain: DIVITQTPAILSTSPGEKVTMTCRASSSVGYIHWYQQKPGSSPKPWIYATSNLASGVPARFSGSGSGTSNSLTITRVEAEDAATYYCQQWSSYPPITFGGGTKLEVKRADAAPTVSIFPPSSEQLTSGGASVVCFLNNFYPKDINVKWKIDGSERQNGVLNSWTDQDSKDSTYSMSSTLTLTKDEYERHNSYTCEATHKTSTSPIVKSFNRNEC
